assay: yeast display, Sf9 membrane polyspecificity reagent, FACS + sequencing; frameworks hold sequencing errors
How it was run: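 A synthetic nanobody library was expressed on Saccharomyces cerevisiae BJ5465 by galactose induction for 36–48 hours. The library was stained for 1 hour at 4 °C with 10% biotinylated, detergent-solubilized Sf9 membrane reagent and enriched with streptavidin microbeads before FACS. Low and high (top ~1%) gates were set on anti-HA fluorescence for expression and streptavidin fluorescence for reagent binding, and each polyreactivity label reflects the gate of origin.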

| Sequence | polyreactivity (PSR sort gate) |
| --- | --- |
| QVQLVESGGGLVQAGGSLRLSCAASGRTFGYYAMGWYRQAPGKEREFVAAISWSGGSTYYADSVKGRFTISRDNAKNTVYLQMNSLKPEDTAVYYCATDTTYYAGSWYGYWGQGTQVTVSS | low polyreactivity |
| QVQLVESGGGLVQAGGSLRLSCAASGRTFGYYAMGWYRQAPGKERELVAAISSRGGSTSYADSVKGRFTISRDNAKNTVYLQMNSLKPEDTAVYYCAVGRPRPKYEYDYWGQGTQVTVSS | high polyreactivity |
| QVQLVESGGGLVQAGGSLRLSCAASGRTFGYYAMGWYRQAPGKERELVAAISWRTVSTHYADSVKGRFTISRDNAKNTVYLQMNSLKPEDTAVYYCAARWGKIRGFHLDYWGQGTQVTVSS | high polyreactivity |
| QVQLVESGGGLVQAGGSLRLSCAASGRTFGYYAMGWYRQAPGKERELVAAITRTGGSTHYADSVKGRFTISRDNAKNTVYLQMNSLKPEDTAVYYCARDYRYTIPYDYWGQGTQVTVSS | low polyreactivity |
| QVQLVESGGGLVQAGGSLRLSCAASGRTFGYYAMGWYRQAPGKERELVAAITWIGGSTYADSVKGRFTISRDNAKNTVYLQMNSLKPEDTAVYYCAADPSVWSDYYYWGQGTQVTVSS | high polyreactivity |
| QVQLVESGGGLVQAGGSLRLSCAASGRTFGYYAMGWYRQAPGKVRELVASISSSGGNTYYADSVKGRFTISRDNAKNNVYLQMNSLKPEDTAVYYCAATYGWWPRDYYYWGQGTQVTVSS | high polyreactivity |
| QVQLVESGGGLVQAGGSLRLSCAASGRTFGYYDMGWYRPAPGKERELVAAITWIDGRTYYADSVKGRFTISRDNAKNTVYLQMNSLKPEDTAVYYCAKRHKAGFYRTYRYGYWGQGTQVTVSS | high polyreactivity |
| QVQLVESGGGLVQAGGSLRLSCAASGRTFGYYGMGWYRQAPGKERELVAAIRRRSGSTYYADSVKGRFTISRDNSKNTFYLQMNSLKPEDTAVYYCNQIRVSNFDYWGQGTQVTVSS | high polyreactivity |
| QVQLVESGGGLVQAGGSLRLSCAASGRTFGYYGMGWYRQAPGKERELVAAITGSGGSTYYADSVKGRFTISRDNAKNTVYLQMNSLKPEDTAVYYCGATDLSRWTLYDYCGQGTQVTVSS | high polyreactivity |
| QVQLVESGGGLVQAGGSLRLSCAASGRTFGYYGMGWYRQAPGKERELVASINFSSGSTFYADSVKGRFTISRDNAKNTVYLQMNSLKPEDTAVYYCAARAKAVRSYAYNYWGQGTQVTVSS | low polyreactivity |
| QVQLVESGGGLVQAGGSLRLSCAASGRTFGYYTMGWYRQAPGKERELVARINYIGSSTYYADSVKGRFTISRDNAKNTVYLHMNSLKPEDTAVYYSNADNARGRSGVRRYYWGQGTQVTVSS | high polyreactivity |
| QVQLVESGGGLVQAGGSLRLSCAASGRTFHAYVMGWYRQAPGKERELVADISSGGDTYADSVKGRFTISRDNAKNTVYLQMNSLKPEDTAVYYCAVDLIQDESGYWGQGTQVTVSS | low polyreactivity |
| QVQLVESGGGLVQAGGSLRLSCAASGRTFHGNAKGWYRTAPGKERELVAAISYSGGRTYYADSVKARFTISRDNAKNTVYLQMNSLKPEDTAVYYCAAWGSSYSFDYWGQGTQVTVSS | high polyreactivity |
| QVQLVESGGGLVQAGGSLRLSCAASGRTFHGYAMGWSRQAPGKERELVARINWSDGRTYYADSVKGRFTISRDNAKNTVYLQMNSLKPADTGVYYCAARLYSSASGVRWIKFDYWGQGTQVTVSS | low polyreactivity |
| QVQLVESGGGLVQAGGSLRLSCAASGRTFHRYAMGWYRQAPGKERELVAAINWRGGSTYYADSVKGRFTISRDNAKNTVYLQMNILKPEDTEVYYCAAKTTTPYRYIYYYWGQGTQVTVSS | high polyreactivity |
| QVQLVESGGGLVQAGGSLRLSCAASGRTFHRYVMGWYRQAPGKERELVAAITRSGGITYYADSVKGRFTISRDNAKNTVYLQMNSLKPEDNAVYYCAKDDLTASGFDYWGQGTQVTVSS | low polyreactivity |
| QVQLVESGGGLVQAGGSLRLSCAASGRTFHSYAMGWYRQAPGKERELVAVITRRGGSTYYADSVKGRFTISRDNAKNTVYLQMNSLKPEDTAVYYCNKGKSYTYDYWGQGTQVTVTS | high polyreactivity |
| QVQLVESGGGLVQAGGSLRLSCAASGRTFHSYAMGWYRQAPGKEWELVAGISWGGTRTTYADSVKGRFTISRDNSKNTVYLQMNSLKPEDTAVYYCNAVYYALGRSPPDYGYWGQGTQVTVSS | low polyreactivity |
| QVQLVESGGGLVQAGGSLRLSCAASGRTFHVYARGWYRQAPGKERELVAAISGRTGSTYYADSVKGRFTISRDNAKNTVYLQMNSLKPEDTAVYYCAARRWSHGTGYGSWGQGTQVTVSS | high polyreactivity |
| QVQLVESGGGLVQAGGSLRLSCAASGRTFHYYVMGWYRQAAGKERELVAAISRSGGNTYYADSVKGRFTISRDNAKNTVYLQMNSLKPEDTAVYYCAAALSAYVKWDYYYWGQGTQVTVSS | low polyreactivity |
| QVQLVESGGGLVQAGGSLRLSCAASGRTFHYYVMGWYRQAPGKERELVAAISRSGGNTYYADSVKGRFTISLDNAKNTVYLQMNSLKPEDTAVYYCAAALSAYVKWDYYYWGQGTQVTVSS | low polyreactivity |
| QVQLVESGGGLVQAGGSLRLSCAASGRTFIFNAMGWYRQAPGKERELVAAISSGGGTNYADSVKWRFTISRDNAKNTVYLQMNSMKPEDTAVYYCAAVPRDHYSYVYDGDKYDYWGQGTQVTVSS | low polyreactivity |

| Sequence | polyreactivity (PSR sort gate) |
| --- | --- |
| QVQLVESGGGLVQAGGSLRLSCAASGRTFIGNAMGWSRQAPGKERELVAGIDSDGSTNYADSVKGRFTISRDNAKNTVYLQMNSLKPEDTAVYYCAAVQGYRFYEYYYWGQGTQVTVSS | low polyreactivity |
| QVQLVESGGGLVQAGGSLRLSCAASGRTFIGYAMGWYRQAPGKERELVAAISSRGGRTYYADSVKGRFTISRDNAKNTVYLQMNSLKPEDTAVYYCAAGRVKHSGYDYWGQGTQVTVSS | high polyreactivity |
| QVQLVESGGGLVQAGGSLRLSCAASGRTFIGYAMGWYRQAPGKERELVAAISSSGGRTYYADSVKGRFTISRDNAKNTVYLQMNSLKPEDTAVYYCNAVRYVLGYSYDYNYWGQGTQVTVSS | high polyreactivity |
| QVQLVESGGGLVQAGGSLRLSCAASGRTFIGYAMGWYRQAPGKERELVAAITSSGGSTYYSDSVKGRFTISRDNAKNTVYLQMNSLKPEDTAVYYCAAGRHSEDNYWGQGTQVTVSS | high polyreactivity |
| QVQLVESGGGLVQAGGSLRLSCAASGRTFIKYARGWYRPAPGKERELVAAISRNGGSTNYADSVKGRFTISRDNAKNTVYFQMNSLKPEDTAVYYCAAVGTVSRTVGYNYWGQGTQVTVSS | high polyreactivity |
| QVQLVESGGGLVQAGGSLRLSCAASGRTFIPNAMGWYRQAPGKERELVARITLRGGSTYYADSVKGRFTISRDNAKNTVYLQMNSLKPEDTAVYYCAAVFSRKGLRYDYWGQGTQVTVSS | low polyreactivity |
| QVQLVESGGGLVQAGGSLRLSCAASGRTFIPYAMGWYRQAPGKERELVATISRSGGSTYYADSVKGRFTISRDNAKNTVYLQMNSLKPEDSAVYYCAAQWVRKSGREGYWGQGTQVTVSS | high polyreactivity |
| QVQLVESGGGLVQAGGSLRLSCAASGRTFIRYAMGWYRQAPGKERELVAAISSRGGRTHYADSVKGRFTISRDNAKNTVYLQMNSLKPEDTAVYYCAADLTYVTVPGASYDYWGQGTQVTVSS | low polyreactivity |
| QVQLVESGGGLVQAGGSLRLSCAASGRTFISNAMGWYRQAPGKERELVADINGGGSTYYADSVKGRFTISRDNAKNTVYLQINSLKPEDTAVYYCAADVWTLDPDEYDYWGQGTQVTVSS | low polyreactivity |
| QVQLVESGGGLVQAGGSLRLSCAASGRTFITNAMGWSRPAPGKEREFVAAIRGGRGSTYYADSVKGRFTISRDNAKNTVYLQMNSVKPEDTAVYFCAARYWLFPRGYNYWGQGTQVTVSS | high polyreactivity |
| QVQLVESGGGLVQAGGSLRLSCAASGRTFIVYAMGWYRQAPGKERELVAAITTSLGRTYYADSVKGRFTISRDNAKNTVYLQMNSLKPEDTAVYYCAADRLDGYSEYYYWGQGTQVTVSS | low polyreactivity |
| QVQLVESGGGLVQAGGSLRLSCAASGRTFIYNAMGWYRQAPGKERELVAAISTSGGRTYYADSVKGRFTISRDNAKNTVYLQMNSLKPEDTAVYYCNAVRSYRMDYWGQGTQVTVSS | high polyreactivity |
| QVQLVESGGGLVQAGGSLRLSCAASGRTFIYYAMGWYTQAPRKERDYVAIITWNGTSTNYADSVKGRFTISRDNAKNTVYLQMNSLYPEDTAVYYCAASFWTDYYRYDYWGQGTQVTVSS | low polyreactivity |
| QVQLVESGGGLVQAGGSLRLSCAASGRTFKAYAMGWYRQAPGKERELVAAISYSTTSTYYADSVKGRFTISRDNAKNTVYLQMNSLKPEDTAVYYCAVDYIIWYDGYLLYYWGQGTQVTVSS | low polyreactivity |
| QVQLVESGGGLVQAGGSLRLSCAASGRTFKDYAMGWYRPAPGKERELFAAISRGGSTNYADSVKGRFTISRDNAKNTVYLQVNSLKPEDTAVYYCARRYIVQSGDDYWGQGTQVTVSS | low polyreactivity |
| QVQLVESGGGLVQAGGSLRLSCAASGRTFKFYAMGWYRQAPGKERELVAAITSDGSTYYADSVKGRFTISRDNAKNTVYLQMNSQKPEDTAVYYCAKRSNTGRGYDYWGQGTQVTVSS | high polyreactivity |
| QVQLVESGGGLVQAGGSLRLSCAASGRTFKFYAMGWYRQAPGKERELVARITSNSGSTYYADSVKGRFTISRDTAKNTVYLQMTSLKPEDTAVYYCAVRGTLGSYWYTYYYWGQGTQVTVSS | high polyreactivity |
| QVQLVESGGGLVQAGGSLRLSCAASGRTFKHYAMGWYRQAPGKERELVAAITSGGSTYYADSVKGRFTISRDNAKNTVYLLMNSLIPEDTAVYYCNKESYFDTYRRYDSWGHGTQVTVSS | low polyreactivity |
| QVQLVESGGGLVQAGGSLRLSCAASGRTFKIHAMGWYRQATGKERELVAAISTSGGSTYYADSVKGRLTISRDNAKNTVYLQMNSLKPEDTAVYYCNAPVFRVGRPEYDYWGQGTQVTVSS | high polyreactivity |
| QVQLVESGGGLVQAGGSLRLSCAASGRTFKINAMGWYRPAPGKERELVAAISRGGGSTYADSVKGRFTISRDNAKNTVYLQMNSLKPEDTAVYYCAARVYGTRKINYSWGQGTQVTVSS | high polyreactivity |
| QVQLVESGGGLVQAGGSLRLSCAASGRTFKINAMGWYRQAPGKERELVAAIRRRGGSTYYADSVKGRFTISRDNAKNTVYLQMNSLKPEDTAVYYCAKTSWPYRVPSDSVAYDYWGQGTQVTVSS | low polyreactivity |
